Laboratory results as given in article doi:10.1101/368720.

Assays:
[1] = molecular target: rabbit skeletal muscle filamentous actin (rabbit) (UniProt P68135); assay: co-sedimentation
[2] = molecular target: rabbit skeletal muscle G-actin (rabbit) (UniProt P68135); assay: ITC

Row | Substance | Kd [1] | stoichiometry N (occidiofungin per actin monomer) [1] | Kd [2] | stoichiometry N (occidiofungin per G-actin) [2] | stoichiometry N (phalloidin per actin monomer) [1]
1 | occidiofungin (native, unmodified) (peptide) | 1000 nM | 24 | 1000 nM | 1 | 
2 | phalloidin (peptide) | 8 nM |  |  |  | 0.6
